Patent publication US20070071744A1 (published 2007)
Ends that are not written are not given here.

What was measured:
Assay in all cases: PepSpot peptide array
peptide 15 = biological target: T1, peptide 15 (human)
T1 construct: also called SLQALPSSLVPLE
T1 peptide: Ac-SLQALPSSLVPLE
Description: (§1) The peptides were synthesized on a cellulose membrane in a stepwise manner resulting in a defined arrangement (peptide array) and are covalently bound to the cellulose membrane. Binding assays were performed directly on the peptide array. In general an antigen peptide array is incubated with blocking buffer for several hours to reduce non-specific binding of proteins or antibodies. It follows the incubation with a primary (antigen peptide-binding) antibody in blocking buffer and an incubation with a horseradish peroxidase (HRP)-labelled secondary antibody, which binds selectively the primary antibody. Alternatively a HRP-labelled primary antibody in blocking buffer can be used.
(§2) A short T(Tween)-TBS-buffer washing directly after the incubation of the antigen peptide array with the secondary protein or antibody or the HRP-labelled primary antibody followed by the first chemiluminescence experiment is made to get an first overview which antigen peptides do bind the primary antibody. Several buffer washing steps follow (T-TBS- and TBS-buffer) to reduce false positive binding (unspecific antibody binding to the cellulose membrane itself). After these washing steps the final chemiluminescence analysis is performed. The data were analysed with an imaging system showing the signal intensity (Light units, LU) as single measurements for each peptide. In order to evaluate non-specific binding of secondary antibodies, incubations using the secondary antibody have to be performed in the absence of the primary antibody as control incubation.

peptide 116 = biological target: T2, peptide 116 (human)
T2 peptide: Ac-TVSFTNKVFTTET
Description: as §1, §2

peptide 63 = biological target: T3, peptide 63 (human)
T3 peptide: Ac-SSGGDVTLQCQTR
Description: as §1, §2

peptide 101 = biological target: T4, peptide 101 (human)
T4 peptide: Ac-VVTGTSVTPSRLP
Description: as §1, §2

peptide 8 = biological target: T5, peptide 8 (human)
T5 peptide: Ac-LGRVPAQSGPLPK
Description: as §1, §2

peptide 13 = biological target: T6, peptide 13 (human)
T6 peptide: Ac-LPKPSLQALPSSL
Description: as §1, §2

peptide 11 = biological target: T7, peptide 11 (human)
T7 construct: also called QSGPLPKPSLQAL
T7 peptide: Ac-QSGPLPKPSLQAL
Description: as §1, §2

peptide 67 = biological target: T8, peptide 67 (human)
T8 construct: also called QCQTRYGFDQFAL
T8 peptide: Ac-QCQTRYGFDQFAL
Description: as §1, §2

peptide 33 = biological target: T9, peptide 33 (human)
T9 peptide: Ac-SRYQDQAVLFIPA
Description: as §1, §2

peptide 68 = biological target: T10, peptide 68 (human)
T10 peptide: Ac-QTRYGFDQFALYK
Description: as §1, §2

peptide 125 = biological target: T11, peptide 125 (human)
T11 peptide: Ac-TSPKESDSPAGPA
Description: as §1, §2

peptide 2 = biological target: T12, peptide 2 (human, cysteine pairing not given here)
T12 peptide: Ac-PSPTALFCLGLCL
Description: as §1, §2

peptide 89 = biological target: T13, peptide 89 (human)
T13 peptide: Ac-TYRCYSFSSRDPY
Description: as §1, §2

peptide 47 = biological target: T14, peptide 47 (human)
T14 peptide: Ac-GSLWSLPSDQLEL
Description: as §1, §2

peptide 48 = biological target: T15, peptide 48 (human)
T15 peptide: Ac-LWSLPSDQLELVA
Description: as §1, §2

peptide 127 = biological target: T16, peptide 127 (human)
T16 peptide: Ac-ESDSPAGPARQYY
Description: as §1, §2

peptide 70 = biological target: T17, peptide 70 (human)
T17 peptide: Ac-GFDQFALYKEGDP
Description: as §1, §2

peptide 77 = biological target: T18, peptide 77 (human)
T18 peptide: Ac-PYKNPERWYRASF
Description: as §1, §2

peptide 92 = biological target: T19, peptide 92 (human)
T19 peptide: Ac-FSSRDPYLWSAPS
Description: as §1, §2

peptide 19 = biological target: T20, peptide 19 (human)
T20 peptide: Ac-LVPLEKPVTLRCQ
Description: as §1, §2

peptide 3 = biological target: T21, peptide 3 (human, cysteine pairing not given here)
T21 peptide: Ac-PTALFCLGLCLGR
Description: as §1, §2

peptide 21 = biological target: T22, peptide 21 (human)
T22 peptide: Ac-EKPVTLRCQGPPG
Description: as §1, §2

peptide 64 = biological target: T23, peptide 64 (human)
T23 peptide: Ac-GGDVTLQCQTRYG
Description: as §1, §2

peptide 90 = biological target: T24, peptide 90 (human)
T24 peptide: Ac-RCYSFSSRDPYLW
Description: as §1, §2

peptide 100 = biological target: T25, peptide 100 (human)
T25 peptide: Ac-ELVVTGTSVTPSR
Description: as §1, §2

peptide 28 = biological target: T26, peptide 28 (human)
T26 peptide: Ac-DLYRLEKLSSSRY
Description: as §1, §2

peptide 60 = biological target: T27, peptide 60 (human)
T27 peptide: Ac-QPGPAVSSGGDVT
Description: as §1, §2

peptide 96 = biological target: T28, peptide 96 (human)
T28 peptide: Ac-WSAPSDPLELVVT
Description: as §1, §2

peptide 41 = biological target: T29, peptide 41 (human)
T29 peptide: Ac-SLAGRYRCSYQNG
Description: as §1, §2

peptide 14 = biological target: T30, peptide 14 (human)
T30 peptide: Ac-KPSLQALPSSLVP
Description: as §1, §2

peptide 109 = biological target: T31, peptide 109 (human)
T31 peptide: Ac-PSSVAEFSEATAE
Description: as §1, §2

peptide 122 = biological target: T32, peptide 122 (human)
T32 peptide: Ac-TSRSITTSPKESD
Description: as §1, §2

peptide 12 = biological target: T33, peptide 12 (human)
T33 peptide: Ac-GPLPKPSLQALPS
Description: as §1, §2

peptide 4 = biological target: T34, peptide 4 (human, cysteine pairing not given here)
T34 peptide: Ac-ALFCLGLCLGRVP
Description: as §1, §2

peptide 112 = biological target: T35, peptide 112 (human)
T35 peptide: Ac-FSEATAELTVSFT
Description: as §1, §2

peptide 72 = biological target: T36, peptide 72 (human)
T36 peptide: Ac-FALYKEGDPAPYK
Description: as §1, §2

peptide 80 = biological target: T37, peptide 80 (human)
T37 peptide: Ac-RWYRASFPIITVT
Description: as §1, §2

peptide 131 = biological target: T38, peptide 131 (human)
T38 peptide: Ac-ARQYYTKGNGGRE
Description: as §1, §2

peptide 24 = biological target: T39, peptide 24 (human)
T39 peptide: Ac-RCQGPPGVDLYRL
Description: as §1, §2

peptide 78 = biological target: T40, peptide 78 (human)
T40 peptide: Ac-KNPERWYRASFPI
Description: as §1, §2

peptide 58 = biological target: T41, peptide 58 (human)
T41 peptide: Ac-SLSAQPGPAVSSG
Description: as §1, §2

LU (Light Units) (peptide 15): 74 LU
LU (Light Units) (peptide 116): 224 LU
LU (Light Units) (peptide 63): 2 LU
LU (Light Units) (peptide 101): 211 LU
LU (Light Units) (peptide 8): 794 LU
LU (Light Units) (peptide 13): 2050 LU
LU (Light Units) (peptide 11): 3540 LU
signal to noise ratio (peptide 11): ~20 ratio
LU (Light Units) (peptide 67): 62 LU
LU (Light Units) (peptide 33): 259 LU
LU (Light Units) (peptide 68): 84 LU
LU (Light Units) (peptide 125): 25 LU
LU (Light Units) (peptide 2): 79 LU
LU (Light Units) (peptide 89): 46 LU
LU (Light Units) (peptide 47): 79 LU
LU (Light Units) (peptide 48): 47 LU
LU (Light Units) (peptide 127): 101 LU
LU (Light Units) (peptide 70): 3 LU
LU (Light Units) (peptide 77): 97 LU
LU (Light Units) (peptide 92): 110 LU
LU (Light Units) (peptide 19): 157 LU
LU (Light Units) (peptide 3): 74 LU
LU (Light Units) (peptide 21): 128 LU
LU (Light Units) (peptide 64): 6 LU
LU (Light Units) (peptide 90): 65 LU
LU (Light Units) (peptide 100): 114 LU
LU (Light Units) (peptide 28): 179 LU
LU (Light Units) (peptide 60): 88 LU
LU (Light Units) (peptide 96): 210 LU
LU (Light Units) (peptide 41): 8 LU
LU (Light Units) (peptide 14): 1420 LU
LU (Light Units) (peptide 109): 69 LU
LU (Light Units) (peptide 122): 195 LU
LU (Light Units) (peptide 12): 2980 LU
LU (Light Units) (peptide 4): 5 LU
LU (Light Units) (peptide 112): 100 LU
LU (Light Units) (peptide 72): 35 LU
LU (Light Units) (peptide 80): 184 LU
LU (Light Units) (peptide 131): 289 LU
LU (Light Units) (peptide 24): 28 LU
LU (Light Units) (peptide 78): 51 LU
LU (Light Units) (peptide 58): 110 LU
B1: monoclonal antibody hGP 5C4 (antibody, V domains shown)
VH: EVKLQESGGGLVQPGRSLKLSCTASGFTFSDYFMSWVRQAPTRGLEWVASISSGGASAYWRDSVKGRFTISRDNAKSALYLQMDSLRSEDTATYFCARGELDFDYWGQGVMVAVSS
VL: ADPNSTLLSASVGDRVTLNCTASQNVYKNLAWYQQKLGEAPRLLLYSANSQTGIPSRFSGSGSGPDFTLTISSLQPEDVASYFCQQYYSGNTFGAGTKLELKR
notes: Rat hybridoma antibody (Lou/C rats), heavy chain gamma 2a, light chain kappa; also called ab 5C4; anti-GPVI mAb 5C4
